# Assay results: PMC4474781 (Environmental microbiology, 2015)
# B1: dihydroorotate dehydrogenase 1B (Dred_1686), untagged, co-expressed with His6-Dred_1685 (enzyme, Desulfotomaculum reducens MI-1, UniProt A4J560 1-304, looked up)
# chain: MKLNLAVKIGQLDMINPVTTASGTFGYGQEYSPYVDLNQLGAIVVKGTTLEPREGNPTPRLVETPSGILNSIGLQNSGVDYLLEHYVPFFKKLQTNVIVNISGNTAEEYGQLAARLDEADGIAALEVNISCPNVKKGGMAFGGDFRTAAEVTKVVKNSTALPVIVKLSPNVTDIAEIARAVEGAGADGLSVINTLLGMAIDVRKRKPVLGNTMGGLSGPAVKPVALRAVWQVYKAVHIPIIGMGGIMNATDALEFILAGAQAVSVGTANFVNPYATKEIIQGMEKYLMENGIGDINELVGAAHL
# Target: T1, oxidoreductase FAD/NAD(P)-binding subunit (Dred_1685), His6-tagged, co-expressed with Dred_1686 (Desulfotomaculum reducens MI-1, UniProt A4J559 1-262)
# T1 sequence (looked up): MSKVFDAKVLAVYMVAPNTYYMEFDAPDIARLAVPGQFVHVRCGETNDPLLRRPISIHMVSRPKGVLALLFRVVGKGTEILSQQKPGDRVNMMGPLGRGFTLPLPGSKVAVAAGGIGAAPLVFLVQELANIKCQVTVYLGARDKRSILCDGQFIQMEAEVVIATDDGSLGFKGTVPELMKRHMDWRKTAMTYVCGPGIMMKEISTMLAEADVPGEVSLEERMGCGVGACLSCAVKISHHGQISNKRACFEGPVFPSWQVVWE
# Assay: pull-down
binder,measurement,value
B1,stoichiometry N,1
